Measurements published in paper PMC5899921 (Cytoskeleton (Hoboken, N.J.), 2017).

Tests used:
[1] = target: the molecule itself; experiment: electron microscopy
[2] = target: the molecule itself; experiment: fluorescence correlation spectroscopy with photon counting histogram analysis

B1: Myo2p, heavy chain of fission yeast myosin-II Myo2, in purified "Phosphorylated Myo2" (natural protein, S. pombe, UniProt Q9USI6 1-1526, looked up)
chain: MTEVISNKITAKDGATSLKDIDDKRWVWISDPETAFTKAWIKEDLPDKKYVVRYNNSRDEKIVGEDEIDPVNPAKFDRVNDMAELTYLNEPAVTYNLEQRYLSDQIYTYSGLFLVAVNPYCGLPIYTKDIIQLYKDKTQERKLPHVFAIADLAYNNLLENKENQSILVTGESGAGKTENTKRIIQYLAAIASSTTVGSSQVEEQIIKTNPVLESFGNARTVRNNNSSRFGKFIKVEFSLSGEISNAAIEWYLLEKSRVVHQNEFERNYHVFYQLLSGADTALKNKLLLTDNCNDYRYLKDSVHIIDGVDDKEEFKTLLAAFKTLGFDDKENFDLFNILSIILHMGNIDVGADRSGIARLLNPDEIDKLCHLLGVSPELFSQNLVRPRIKAGHEWVISARSQTQVISSIEALAKAIYERNFGWLVKRLNTSLNHSNAQSYFIGILDIAGFEIFEKNSFEQLCINYTNEKLQQFFNHHMFVLEQEEYMKEEIVWDFIDFGHDLQPTIDLIEKANPIGILSCLDEECVMPKATDATFTSKLDALWRNKSLKYKPFKFADQGFILTHYAADVPYSTEGWLEKNTDPLNENVAKLLAQSTNKHVATLFSDYQETETKTVRGRTKKGLFRTVAQRHKEQLNQLMNQFNSTQPHFIRCIVPNEEKKMHTFNRPLVLGQLRCNGVLEGIRITRAGFPNRLPFNDFRVRYEIMAHLPTGTYVESRRASVMILEELKIDEASYRIGVSKIFFKAGVLAELEERRVATLQRLMTMLQTRIRGFLQRKIFQKRLKDIQAIKLLQANLQVYNEFRTFPWAKLFFNLRPLLSSTQNDKQLKKRDAEIIELKYELKKQQNSKSEVERDLVETNNSLTAVENLLTTERAIALDKEEILRRTQERLANIEDSFSETKQQNENLQRESASLKQINNELESELLEKTSKVETLLSEQNELKEKLSLEEKDLLDTKGELESLRENNATVLSEKAEFNEQCKSLQETIVTKDAELDKLTKYISDYKTEIQEMRLTNQKMNEKSIQQEGSLSESLKRVKKLERENSTLISDVSILKQQKEELSVLKGVQELTINNLEEKVNYLEADVKQLPKLKKELESLNDKDQLYQLQATKNKELEAKVKECLNNIKSLTKELENKEEKCQNLSDASLKYIELQEIHENLLLKVSDLENYKKKYEGLQLDLEGLKDVDTNFQELSKKHRDLTFNHESLLRQSASYKEKLSLASSENKDLSNKVSSLTKQVNELSPKASKVPELERKITNLMHEYSQLGKTFEDEKRKALIASRDNEELRSLKSELESKRKLEVEYQKVLEEVKTTRSLRSEVTLLRNKVADHESIRSKLSEVEMKLVDTRKELNSALDSCKKREAEIHRLKEHRPSGKENNIPAVKTTEPVLKNIPQRKTIFDLQQRNANQALYENLKRDYDRLNLEKHNLEKQVNELKGAEVSPQPTGQSLQHVNLAHAIELKALKDQINSEKAKMFSVQVQYEKREQELQKRIASLEKVNKDSLIDVRALRDRIASLEDELRAA
modifications: phosphoserine at 1444 (largely phosphorylated, LC/MS/MS)
[1]
  stoichiometry N: 2

B2: mEGFP-Myo2 (Myo2 heavy chain with an N-terminal mEGFP tag) (natural protein, S. pombe, UniProt Q9USI6 1-1526, looked up)
chain: MTEVISNKITAKDGATSLKDIDDKRWVWISDPETAFTKAWIKEDLPDKKYVVRYNNSRDEKIVGEDEIDPVNPAKFDRVNDMAELTYLNEPAVTYNLEQRYLSDQIYTYSGLFLVAVNPYCGLPIYTKDIIQLYKDKTQERKLPHVFAIADLAYNNLLENKENQSILVTGESGAGKTENTKRIIQYLAAIASSTTVGSSQVEEQIIKTNPVLESFGNARTVRNNNSSRFGKFIKVEFSLSGEISNAAIEWYLLEKSRVVHQNEFERNYHVFYQLLSGADTALKNKLLLTDNCNDYRYLKDSVHIIDGVDDKEEFKTLLAAFKTLGFDDKENFDLFNILSIILHMGNIDVGADRSGIARLLNPDEIDKLCHLLGVSPELFSQNLVRPRIKAGHEWVISARSQTQVISSIEALAKAIYERNFGWLVKRLNTSLNHSNAQSYFIGILDIAGFEIFEKNSFEQLCINYTNEKLQQFFNHHMFVLEQEEYMKEEIVWDFIDFGHDLQPTIDLIEKANPIGILSCLDEECVMPKATDATFTSKLDALWRNKSLKYKPFKFADQGFILTHYAADVPYSTEGWLEKNTDPLNENVAKLLAQSTNKHVATLFSDYQETETKTVRGRTKKGLFRTVAQRHKEQLNQLMNQFNSTQPHFIRCIVPNEEKKMHTFNRPLVLGQLRCNGVLEGIRITRAGFPNRLPFNDFRVRYEIMAHLPTGTYVESRRASVMILEELKIDEASYRIGVSKIFFKAGVLAELEERRVATLQRLMTMLQTRIRGFLQRKIFQKRLKDIQAIKLLQANLQVYNEFRTFPWAKLFFNLRPLLSSTQNDKQLKKRDAEIIELKYELKKQQNSKSEVERDLVETNNSLTAVENLLTTERAIALDKEEILRRTQERLANIEDSFSETKQQNENLQRESASLKQINNELESELLEKTSKVETLLSEQNELKEKLSLEEKDLLDTKGELESLRENNATVLSEKAEFNEQCKSLQETIVTKDAELDKLTKYISDYKTEIQEMRLTNQKMNEKSIQQEGSLSESLKRVKKLERENSTLISDVSILKQQKEELSVLKGVQELTINNLEEKVNYLEADVKQLPKLKKELESLNDKDQLYQLQATKNKELEAKVKECLNNIKSLTKELENKEEKCQNLSDASLKYIELQEIHENLLLKVSDLENYKKKYEGLQLDLEGLKDVDTNFQELSKKHRDLTFNHESLLRQSASYKEKLSLASSENKDLSNKVSSLTKQVNELSPKASKVPELERKITNLMHEYSQLGKTFEDEKRKALIASRDNEELRSLKSELESKRKLEVEYQKVLEEVKTTRSLRSEVTLLRNKVADHESIRSKLSEVEMKLVDTRKELNSALDSCKKREAEIHRLKEHRPSGKENNIPAVKTTEPVLKNIPQRKTIFDLQQRNANQALYENLKRDYDRLNLEKHNLEKQVNELKGAEVSPQPTGQSLQHVNLAHAIELKALKDQINSEKAKMFSVQVQYEKREQELQKRIASLEKVNKDSLIDVRALRDRIASLEDELRAA
[2]
  stoichiometry N: 2
